Biological target: IFN-receptor expressed by 38C13 cells (mouse (endogenous in 38C13)) (UniProt P33896)
Experiment: radioligand binding

Sequence of UniProt P33896 (P33896 27-590, chain 1 of 2): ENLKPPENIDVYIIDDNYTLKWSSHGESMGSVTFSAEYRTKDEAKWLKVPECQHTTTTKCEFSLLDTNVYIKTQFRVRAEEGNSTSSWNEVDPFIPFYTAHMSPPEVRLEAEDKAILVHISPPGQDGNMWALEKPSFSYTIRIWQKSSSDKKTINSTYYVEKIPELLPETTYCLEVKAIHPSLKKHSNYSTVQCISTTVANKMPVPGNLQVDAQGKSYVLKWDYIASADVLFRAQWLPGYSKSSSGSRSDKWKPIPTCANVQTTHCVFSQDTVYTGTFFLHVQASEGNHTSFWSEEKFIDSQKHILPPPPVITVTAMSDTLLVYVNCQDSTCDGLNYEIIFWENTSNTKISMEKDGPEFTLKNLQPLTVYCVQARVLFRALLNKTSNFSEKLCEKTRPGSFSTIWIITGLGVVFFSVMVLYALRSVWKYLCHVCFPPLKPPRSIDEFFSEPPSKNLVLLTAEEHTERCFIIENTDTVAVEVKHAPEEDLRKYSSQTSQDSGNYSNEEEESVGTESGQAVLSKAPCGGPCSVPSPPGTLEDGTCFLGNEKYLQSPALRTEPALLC
Sequence of UniProt P33896 (O35664 22-513, chain 2 of 2, further chain): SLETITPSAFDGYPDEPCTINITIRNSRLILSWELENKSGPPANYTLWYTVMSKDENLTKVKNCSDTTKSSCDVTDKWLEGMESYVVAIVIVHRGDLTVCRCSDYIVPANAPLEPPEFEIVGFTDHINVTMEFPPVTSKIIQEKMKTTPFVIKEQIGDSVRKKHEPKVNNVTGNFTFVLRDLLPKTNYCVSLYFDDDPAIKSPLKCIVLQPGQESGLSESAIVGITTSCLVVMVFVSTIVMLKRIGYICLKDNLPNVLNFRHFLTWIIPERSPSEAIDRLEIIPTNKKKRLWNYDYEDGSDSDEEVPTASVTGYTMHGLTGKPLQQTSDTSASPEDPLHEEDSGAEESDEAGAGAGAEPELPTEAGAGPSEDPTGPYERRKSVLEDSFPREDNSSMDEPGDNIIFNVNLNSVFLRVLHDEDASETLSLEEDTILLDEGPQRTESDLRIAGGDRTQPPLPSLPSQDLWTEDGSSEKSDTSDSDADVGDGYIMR

percent cell-bound activity: 44.6%
Substance: anti-CD20 rituximab-murine IFNα1 fusion protein (from UniProt P01572 24-189)
